From US20220064294A1

Biological target: mouse TIGIT, full length, on CHO-K1 cells (mouse) (UniProt P86176)
Test: flow cytometry, CHO-K1 cells transiently transfected with mouse TIGIT; target taken from the legend paragraph 32 and from paragraph 286 (FIG. 4A = mouse TIGIT); paragraph 286 however names GNE10A7, not G1GD7, as the control for mouse TIGIT

mouse TIGIT, full length, on CHO-K1 cells (mouse), sequence (P86176 29-249 limits assumed): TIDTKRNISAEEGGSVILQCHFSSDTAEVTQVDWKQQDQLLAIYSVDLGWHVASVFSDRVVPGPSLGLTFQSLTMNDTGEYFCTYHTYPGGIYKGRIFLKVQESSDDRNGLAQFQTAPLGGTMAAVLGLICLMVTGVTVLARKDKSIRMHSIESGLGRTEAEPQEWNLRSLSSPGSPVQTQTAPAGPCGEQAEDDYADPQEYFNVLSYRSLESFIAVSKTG

## eBioscience G1GD7 (antibody)
  EC50 (read off the curve): 0.8 nM
